Measurements as given in publication PMC10154249 (2023).

Target: His-UPCP (HIV | human)
Experiment: MST

B1: Flag-PTBP1 (natural protein)
chain: not shown
Binder B1 has a Kd of 4.63 µM.
